Numbering of substitutions follows the chain as printed. Read-outs that look alike come from different tables or passages of the source.
T1: human BMP9 (BMP9/Growth Differentiation Factor 2 [Homo sapiens], NP_057288) (human, UniProt Q9UK05 320-429, limits assumed)
T1 construct: cell assays use 'recombinant human BMP9 complex'; also called huBMP9; hBMP9
T1 sequence: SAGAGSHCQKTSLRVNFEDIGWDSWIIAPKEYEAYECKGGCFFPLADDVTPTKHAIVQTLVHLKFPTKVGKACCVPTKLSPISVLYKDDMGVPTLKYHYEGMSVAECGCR

T2: human BMP10 (Bone Morphogenetic Protein 10 Preproprotein [Homo sapiens], NP_055297) (human, UniProt O95393 317-424)
T2 construct: Bought recombinant protein; also called huBMP10; rhBMP10 (R&D Cat#2926-BP-025)
T2 sequence: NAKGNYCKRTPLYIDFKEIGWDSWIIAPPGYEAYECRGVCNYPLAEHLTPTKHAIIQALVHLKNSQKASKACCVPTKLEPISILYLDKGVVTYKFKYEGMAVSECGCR

T3: rat BMP9 (rat, UniProt M0RB87 320-430, The mature growth factor is a disulfide-linked homodimer. One copy of the polypeptide is given.)
T3 construct: also called rat BMP9 (R&D Systems 5566-BP); rat BMP9 condition medium
T3 sequence: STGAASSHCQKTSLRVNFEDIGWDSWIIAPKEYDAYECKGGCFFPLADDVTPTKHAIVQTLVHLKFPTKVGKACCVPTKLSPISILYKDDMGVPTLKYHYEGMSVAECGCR

T4: human BMP7 (human, UniProt P18075 293-431)
T4 construct: Bought recombinant protein; also called huBMP7; rhBMP7 (R&D Cat#354-BP-010)
T4 sequence (looked up): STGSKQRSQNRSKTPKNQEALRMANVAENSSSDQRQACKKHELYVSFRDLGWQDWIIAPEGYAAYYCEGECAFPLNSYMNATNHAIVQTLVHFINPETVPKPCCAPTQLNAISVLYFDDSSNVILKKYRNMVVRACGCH

T5: mouse BMP9 (mouse, UniProt Q9WV56 319-428, limits assumed)
T5 construct: also called murine BMP9; mouse BMP9 (iPROT101715)
T5 sequence (looked up): T1 sequence with A2T, G5S, E33D, V84I

T6: cyno BMP9 (cyno, UniProt G7PEU8 320-429)
T6 sequence: T1 sequence with A2T, D23N, V84I

B1: Antibody BMP9-5: AM1900 (antibody, human IgG1, kappa, V domains shown)
VH: QVQLVQSGAEVKKPGASVKVSCKASGYTFTRYWMHWVRQAPGQGLEWMGEINPSQGGTNYNEKFKSRVTMTVDKSISTAYMELSRLRSDDTAVYYCAIGANYGGLVYWGQGTLVTVSS
VL: EIVLTQSPATLSLSPGERATLSCRASESLDNYGISFMNWFQQKPGQAPRFLIYAASNQGSGIPARFSGSGSGTDFTLTISSLQPEDTAVYFCQQSKEVPRTFGGGTKVEIKR
B2: Mouse Antibody 4E10D7 (antibody, V domains shown)
VH: QVQLQQPGAEAVKPGASVKLSCKASGYTFTRYWMHWVKQRPGQGLEWIGEINPSNGGTNYNEKFKSKATLTVDKSSSTAYMQLSSLTSEDFAVYYCTMGSNYGGFVYWGQGTLVTVSA
VL: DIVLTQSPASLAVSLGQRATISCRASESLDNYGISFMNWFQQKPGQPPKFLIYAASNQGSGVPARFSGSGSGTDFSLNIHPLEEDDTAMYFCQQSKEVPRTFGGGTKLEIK
notes: Mouse hybridoma monoclonal antibody; also called parental 4E10D7 antibody
B3: Antibody BMP9-4: AM4405 (antibody, human IgG1, kappa, V domains shown)
VH: QVQLVQSGAEVKKPGASVKVSCKASGYTFRSYNMHWVRQAPGQGLEWMGLIYPGNAVTSYSQKFKDRVTMTVDKSTSTAYMELSSLRSEDTAVYYCAKDDYFRGGSYAMDYWGQGTTVTVSS
VL: EIVLTQSPDFQSVTPKEKVTITCRASQSIRNNLHWYQQKPDQSPKLLIKYASQSIRGVPSRFSGSGSGTDFTLTINSLEAEDAATYYCQQSHSWPYTFGGGTKVEIKR
notes: also called 2B11G2-AM4405
B4: Mouse Antibody 2B11G2 (antibody, V domains shown)
VH: QAYLQQSGAELVRPGASVKMSCKASGYTFPSYNMHWVKQTPRQGLEWIGVIYPGNGVTSYSQKFKDKATLTVDKSSSTAYMQLSSLTSEDSAVYFCAKDDYFYGGSYAMDYWGQGTSVTVSS
VL: DIVLTQSPATLSVTPGDSVSLSCRASQSISNNLHWYQQISHESPRLLIKYASQSISGIPSRFSGSGSGTDFTLSINSMETEDFGMFFCQQSHSWPYTFGGGTKLEIK
notes: Mouse hybridoma monoclonal antibody; also called B211G2
B5: Antibody BMP9-6: MOR022965 (antibody, human IgG1, kappa, V domains shown)
VH: QVQLVQSGAEVKKPGSSVKVSCKASGGTFSSYAISWVRQAPGQGLEWMGHIIPHWGHARYAQKFQGRVTITADESTSTAYMELSSLRSEDTAVYYCARSASSLPHFHWFDYWGQGTLVTVSS
VL: DIQMTQSPSSLSASVGDRVTITCRASQDINNYLNWYQQKPGKAPKLLIYAASRLQSGVPSRFSGSGSGTDFTLTISSLQPEDFATYYCQQRDTTPWTFGQGTKVEIKR
notes: Fully human, phage display

Key:
[1] = molecular target: T1, human BMP9 (BMP9/Growth Differentiation …); assay: blocking ELISA; competitor Type II BMP receptor (ActRIIB, BMPRII)
Procedure: (§1) Blocking ELISA was used to identify positive clones that can inhibit the interactions between BMP9 and its receptors. Four different recombinant BMP9 receptors can be used: human Alk1-Fc (R&D system, 370-AL-100); human BMPRII-Fc (R&D system, 811-BR-100); human ActRIIA-Fc (R&D system, 340-R2-100); human ActRIIB-Fc (R&D system).
(§2) The blocking activity of antibody sample to specific ligand/receptor combination was measured by ELISA. In brief, 50 ul of receptor at a concentration of 1 ug/ml in coating buffer (PBS) was added into 96 well ELISA plates at 4° C. overnight, followed by washing with PBST one time. ELISA plates were blocked with 200 ul blocking buffer (PBST containing 1% BSA) in each well and then incubated at room temperature (RT) for 1 hour, followed by washing with PBST for 3 times. Diluted antibody sample was mixed with biotinylated human BMP9 (bio-hBMP9 of 1 ug/ml) and incubated at RT for 45 minutes. The mixture of antibody and bio-hBMP9 was added to the plates of 50 ul/well and then incubated at RT for 30 minutes, followed by washing with PBST for 3 times. 50 ul Poly-HRP Streptavidin (Thermofisher, 21140) was added to each well of the plates and incubated at RT for 30 minutes, followed by washing with PBST for 5 times. Finally, 50 ul of TMB reagent (Invitrogen 002023) and 50 ul of 1N HCl (Invitrogen SS01100) were added to each well to stop the reaction. Absorbance of each well was read at 450 nm to get readout OD₄₅₀.

[2] = molecular target: T2, human BMP10 (Bone Morphogenetic Protein …); assay: Table 5 (caption: MSD-SET; Example 6 describes Biacore SPR on immobilised rhBMP10, Fab 31.25-1000 nM)
[3] = molecular target: T1, human BMP9 (BMP9/Growth Differentiation …); assay: MSD-SET solution equilibrium titration
Procedure: (§3) The amount of free Fab binding sites was determined by transferring the mixtures on antigen-coated plates and a brief incubation. The free Fab was consequently bound to the plate and detected with a detection antibody after a washing step for removing Fab-antigen complexes. The resulting signal was plotted versus the antigen concentration; and the KD was accurately determined by non-linear curve fitting.
(§4) A 22 serial 2ⁿ dilution of the antigens (human BMP9 (GD-43-KS00); cyno BMP9, rat BMP9 (R&D Systems 5566-BP) or mouse BMP9 (iPROT101715)) was prepared in incubation buffer (PBS (Teknova Cat#P0195) containing 0.5% BSA (Sigma Cat#A7906-500G) and 0.02% Tween-20 (VWR Cat#437082Q)). A constant concentration of the Fab was added. A volume of 60 ul of each antigen:Fab mix was distributed in duplicates to a 384-well polypropylene microtiter plate (PP MTP, Greiner Cat#781280). Incubation buffer served as negative control and a sample containing no antigen served as positive control (Bₘₐₓ). The plate was sealed and incubated overnight (O/N) at room temperature (RT).
(§5) A 384-well standard MSD array plate (Meso Scale Discovery Cat#L21XA) was coated with 30 ul/well human BMP9 diluted in PBS as capture agent and incubated O/N at 4° C. After washing for 3 times with 70 ul/well washing buffer (TBS (Teknova Cat#T1680) with 0.05% Tween-20), the plate was blocked with 50 ul/well blocking buffer (PBS with 5% BSA) for 1 hour at RT. After washing, a volume of 30 ul/well of the antigen:Fab mix was transferred from the PP MTP to the coated MSD plate and incubated for 20 min at RT. After an additional wash step, 30 ul of detection antibody (Goat anti-human Fab specific (Jackson Immuno Research Cat#109-005-097) conjugated with MSD SULFO-TAG NHS Ester (Meso Scale Discovery Cat#R91AN-1)) diluted 1:1000 in incubation buffer was added to each well and incubated for 30 min at RT. The MSD plate was washed and 35 ul/well of read buffer (MSD Read Buffer T 4×, Meso Scale Discovery Cat#R92TC-1) was added and then incubated for 5 min at RT. ECL signals were measured with the MSD SECTOR Imager 6000. The data was evaluated with XLfit (IDBS) software following a 1:1 fit model for Fab (according to Piehler et al., 1997).

rat BMP9 = molecular target: T3, rat BMP9; assay: MSD-SET solution equilibrium titration
Procedure: as §3, §4, §5

[4] = molecular target: T1, human BMP9 (BMP9/Growth Differentiation …); assay: cell-based or functional assay
human BMP2 [5] = molecular target: T7, human BMP2 (human, UniProt P12643 283-396); assay: table caption: MSD-SET; Example 6 describes Biacore SPR for BMP2, BMP7, BMP10
T7 construct: Bought recombinant protein; also called huBMP2; rhBMP2 (R&D Cat#355-BM-010)
T7 sequence (P12643 283-396 limits assumed): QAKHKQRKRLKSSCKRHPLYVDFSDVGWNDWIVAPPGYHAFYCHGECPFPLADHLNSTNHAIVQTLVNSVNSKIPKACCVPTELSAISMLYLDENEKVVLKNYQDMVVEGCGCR

human BMP7 = molecular target: T4, human BMP7; assay: as above
[6] = molecular target: T1, human BMP9 (BMP9/Growth Differentiation …); assay: Biacore SPR, bivalent model, KD from ka1 and kd1
[7] = molecular target: T1, human BMP9 (BMP9/Growth Differentiation …); assay: Biacore SPR, bivalent model, kd1
[8] = molecular target: T1, human BMP9 (BMP9/Growth Differentiation …); assay: Biacore SPR, bivalent model, ka1
mouse BMP9 = molecular target: T5, mouse BMP9; assay: MSD-SET solution equilibrium titration
Procedure: as §3, §4, §5

cyno BMP9 = molecular target: T6, cyno BMP9; assay: MSD-SET solution equilibrium titration
Procedure: as §3, §4, §5

[9] = molecular target: T1, human BMP9 (BMP9/Growth Differentiation …); assay: blocking ELISA; competitor Type I BMP receptor (AlkI)
Procedure: as §1, §2

[10] = molecular target: T2, human BMP10 (Bone Morphogenetic Protein …); assay: Table 7 (caption: MSD-SET; Example 6 describes Biacore SPR on immobilised rhBMP10, Fab 31.25-1000 nM)
human BMP2 [11] = molecular target: T7, human BMP2; assay: table caption: MSD-SET; Example 6 describes Biacore SPR for BMP2, BMP7, BMP10; remark: listed apart in the source
[12] = molecular target: T1, human BMP9 (BMP9/Growth Differentiation …); assay: cell-based or functional assay; remark: listed apart in the source

Binder | IC50 [1] [nM] | binding result [2] | Kd [3] [nM] | Kd (rat BMP9) [nM] | RGA IC50 [pM] (HEK293T BRE-Luc reporter gene assay) [4] | Kd (human BMP2 [5]) [nM] | Kd (human BMP7) [µM] | Kd [6] [nM] | koff [7] [s⁻¹] | kon [8] [M⁻¹ s⁻¹] | Kd (mouse BMP9) [nM] | Kd (cyno BMP9) [nM] | IC50 [9] [nM] | binding result [10] | Kd (human BMP2 [11]) [µM] | RGA IC50 [pM] (HEK293T BRE-Luc reporter gene assay) [12]
B1 | ≤ 1 | no binding | 0.054 | 0.046 | 100 | 999 | 0.108 | – | – | – | – | – | – | – | – | –
B2 | – | – | – | – | – | – | – | 2.2 | 0.000617 | 281000 | – | – | – | – | – | –
B3 | – | no binding | 0.018 | 0.013 | 90 | 177 | 9.17 | – | – | – | 0.008 | 0.048 | ≤ 1 | – | – | –
B4 | – | – | – | – | – | – | – | 66.2 | 0.000166 | 2510 | – | – | – | – | – | –
B5 | – | – | 0.032 | – | – | – | – | – | – | – | 0.069 | 0.023 | ≤ 1 | no binding | 3.11 | 180
